Test results as given in paper PMC9232537.

Molecular target: 6xHis-N-WASP (UniProt O00401)
UniProt O00401, sequence (O00401 whole entry): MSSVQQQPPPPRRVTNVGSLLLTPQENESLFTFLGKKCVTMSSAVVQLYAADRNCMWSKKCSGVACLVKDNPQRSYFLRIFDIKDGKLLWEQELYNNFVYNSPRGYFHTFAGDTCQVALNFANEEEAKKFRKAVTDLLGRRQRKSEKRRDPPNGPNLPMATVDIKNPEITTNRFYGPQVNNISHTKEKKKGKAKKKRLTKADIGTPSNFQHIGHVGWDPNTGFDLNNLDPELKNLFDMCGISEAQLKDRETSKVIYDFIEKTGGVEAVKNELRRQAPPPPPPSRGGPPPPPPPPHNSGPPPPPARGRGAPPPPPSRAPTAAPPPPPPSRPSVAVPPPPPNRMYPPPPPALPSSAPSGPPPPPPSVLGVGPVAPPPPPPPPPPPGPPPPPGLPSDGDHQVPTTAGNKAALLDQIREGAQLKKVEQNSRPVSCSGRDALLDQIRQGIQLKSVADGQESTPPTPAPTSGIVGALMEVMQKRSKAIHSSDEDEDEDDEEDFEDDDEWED

## purified native MirA (natural protein)
  pyrene actin (1 µM, 10% labeled) polymerization with Arp2/3 complex (50 nM), N-WASP (200 nM) and increasing MirA; MirA concentration for half-maximum activity (time to half-maximum fluorescence): 60 nM
